Measurements: patent publication US20250340652A1 (CHENGDU DI AO PHARMACEUTICAL GROUP, published 2025)
Substitutions are numbered along the chain they refer to.

B1: B53 (antibody, human IgG4, kappa, V domains shown)
VH: EVQLVETGGGVVQPGRSLRLSCAASGFTFSSYAMHWVRQAPGKGLEWVAVISYDGSNKYYADSVKGRFTISRDNSKNTLYLQMNSLRAEDTAVYYCARNRYGATDYWGQGTLVTVSS
VL: NIQLTQSPSSLSASVGDRVTITCRASQGINSWLAWYQQKPGKAPKLLIYAASTLQSGVPSRFSGSGSGTDFTLTINSLQPEDFATYYCQQLNSFPFTFGPGTKVHIKR
notes: also called P59387
B2: B117 (antibody, human IgG4, kappa, V domains shown)
VH: EVQLLESGGGLVQPGGSLRLSCAASGFTFSSYSMNWVRQAPGKGLEWVSYISSSSSTIYYADSVKGRFTISRDNAKNSLYLQMNSLRDEDTAVYYCARDRTLGYWGQGTLVTVSS
VL: B1 VL with L11V, T22S, N30G, S31R, T53N, N76S, L91A, F96R, H105D
notes: also called P59394
B3: B109 (antibody, human IgG4, kappa, V domains shown)
VH: EVQLLESGGGLVKPGGSLRLSCAASGFTFSSYSMNWVRQAPGKGLEWVSSISSSSSYIYYADSVKGRFTISRDNAKNSLYLQMNSLRDGDTAIYYCVRRLWEAPGIGPFDVWGHGTMVTVSS
VL: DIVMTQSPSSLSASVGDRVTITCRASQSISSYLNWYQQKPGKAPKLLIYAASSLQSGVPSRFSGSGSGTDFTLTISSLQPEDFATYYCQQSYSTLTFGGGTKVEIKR
notes: also called P59392
B4: B24 (antibody, human IgG4, kappa, V domains shown)
VH: EVQLVETGGGLVKPGGSLRLSCAASGFTFSSYSMNWVRQAPGKGLEWVSSISSSSSYIYYADSVKGRFTISRDNAKNSLYLQMNSLRAEDTAVYYCARGRRRDFDYWGQGTLVTVSS
VL: DIQMTQSPSSLPASVGDRVTITCRASQGIGTFLAWYQQHLGKAPKLLISASSTVQRGVPSRFSGSGSGTEFTLTINSLQPEDFATYYCQQLNNYPRTFGQGTKVEIKR
notes: also called P59384
B5: B20 (antibody, human IgG4, kappa, V domains shown)
VH: QVQLLESGPGLVKPSETLSLTCTVSGDSISNYFWSWIRQSPGKGLEWIGYIHYSGTVSYNPSLRSRVTISIDTSKNQFSLKLSSVTAADTAVYYCARRGRIAAAGTGYYYYGMDVWGQGTTVTVSS
VL: EIVMTQSPATLSLSPGERATLSCRASQSVSNYLAWYQQKPGQAPRLLIYGASSRATGIPDRFSGSGSGTDFTLTISRLEPEDFAVYYCQQYGSSLWTFGQGTKVEIKR
notes: also called P59383
B6: B123 (antibody, human IgG4, kappa, V domains shown)
VH: QVQLQQWGAGLLKPSQTLSLTCTVSGGSISSGGYYWSWIRQHPGKGLEWIGYIYYSGSTYYNPSLKSRVTISVDTSKNQFSLKLSSVTAADTAVYYCARWDRVREGGRFSNAFDIWGQGTMVTVSS
VL: NIQLTQSPSSLSASVGDRVTITCRASQGISTYLAWYQQKPGLAPKLLIYGASTLQSGVPSKFSGFGSGRDFTLTISSLQPEDIATYYCQQLNTYPPTFGQGTKLEIKR
notes: also called P59395
B7: B83 (antibody, V domains shown)
VH: EVQLLESGGGLVQPGGSLRLSCAASGFTFSSYAMSWVRQAPGKGLEWVSAISGSGGRTYYADSVKGRFTISRDNSKNTLYLQMNSLRAEDTAVYYCARVLQYSGTDDLDVWGRGTLVTVSS
VL: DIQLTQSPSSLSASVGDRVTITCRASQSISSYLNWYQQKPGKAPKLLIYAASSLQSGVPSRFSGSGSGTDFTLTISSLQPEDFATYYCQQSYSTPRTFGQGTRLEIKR
notes: also called P59389
B8: B67 (antibody, human IgG4, kappa, V domains shown)
VH: QITLKESGPGLVKPSGTLSLTCAVSGGSISSSNWWSWVRQPPGKGLEWIGEIYHSGSTNYNPSLKSRVTISVDKSKNQFSLKLSSVTAADTAVYYCARDDGWRYGSVYYYYMDVWGKGTTVTVSS
VL: DIQLTQSPSSLSASVGDRVTITCRASQSIDDHLNWYQQKPGKVPKLLISSASTLQSGAPSRFSGSGYGTDFTLTISSLQVEDFATYYCQQSYSPPQTFGQGTKVEIKR
notes: also called P59388
B9: B201 (antibody, human IgG4, kappa, V domains shown)
VH: EVQLVESGGGLVQPGGSLRLSCAASGFTFSSYAMHWVRQAPGKGLEWVSAISGSGDSTYYADSVKGRFSISRDNSKNTLYLQMNSLRAEDTAVYYCAKGSRRSGFNLFDYWGQGTLVTVSS
VL: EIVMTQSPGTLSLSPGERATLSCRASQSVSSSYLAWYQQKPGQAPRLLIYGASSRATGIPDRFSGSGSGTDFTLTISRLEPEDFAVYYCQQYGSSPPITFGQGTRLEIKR
notes: also called P59398
B10: A382 (antibody, human IgG4, kappa, V domains shown)
VH: QVQLVQSGAEVKKPGASVKVSCKASGYTFTSYAMHWVRQAPGQRLEWMGWINAGNGNTKYSQKFQGRVTITRDTSASTAYMELSSLRSEDTAVYYCATSKSVWNFDYWGQGTLVTVSS
VL: EIVLTQSPATLSLSPGERATLSCRASQGISSYLAWYQQKPGQAPRLLIYDASNRATGIPARFSGSGSGTDFTLTISNLEPEDFAVYYCQQRKNWPLTFGGGSKVEIKR
notes: also called P59381
B11: B114 (antibody, human IgG4, kappa, V domains shown)
VH: EVQLLESGGGLVQPGGSLKLSCAASGFTFSGYAMHWVRQAPGKGLEWVAVISYDGSNKYYADSVKGRFTISRDNSKNTLYLQMNSLRAEDTAVYYCARGRGRGVFDYWGQGTLVTVSS
VL: B10 VL with A9G, G28S, I29V, S31K, A51V, N77S, K92R, N93S, S102T, K107R
notes: also called P59393
B12: A21 (antibody, human IgG4, kappa, V domains shown)
VH: EVHLVESGPELVRPGASVTLSCKASGYTFTDYEMHWVKQTPVHGLEWIGAIDPETGGTAYNQKFKGKATLTADKSSSTAYMELRSLTSEDSAVYYCTTTYGNYWYFDVWGAGTLVTVSS
VL: DIQLTQSPSSVSASVGDRVTITCRASQNIENWLAWYQQKPGKAPKLLIYATSRLENDVPSRFSGSRSGTEFILTISSLQPEDFATYYCHQANGFPWTFGPGTKVDIKR
notes: also called P59369
B13: B29 (antibody, human IgG4, kappa, V domains shown)
VH: QVQLVQSGAEVKKPGSSVKVSCKASGDTFSSFAISWVRQAPGQGLEWMGTIIPLFTTPNYAQKFQGRVTITADESTRTAYMELSSLRSEDTAVYYCARGPERIAAAGYYYYYGMDVWGQGTTVTVSS
VL: EIVMTQSPGTLSLSPGQRATLSCRASQSVSSSSLAWYQQKPGQAPRLLIHGASSRATGIPDRFSGSGSGTDFTLTISRLEPEDFAVYYCQQYGTSWTFGQGTKVEIKR
notes: also called P59385
B14: A8 (antibody, human IgG4, kappa, V domains shown)
VH: QVQLVQSGAEVKKPGSSVKVSCKASGGTFSSYAISWVRQAPGQGLEWMGGIIPIFGTANYAQKFQGRVTMTRDTSTSTVYMELSSLRSEDTAVYYCARDSDFWSGYSSMDVWGQGTTVTVSS
VL: DIVMTQSPLSLPVTLGQPASISCRSSQSLVHSDGNTYLNWFQQRPGQSPRRLIYKVSNRDSGVPDRFSGSGSGTDFTLKISRVEAEDVGVYYCMQGTQWPDTFGQGTKLEIKR
notes: also called P59367
B15: B307 (antibody, human IgG4, kappa, V domains shown)
VH: QLQLQESGPGLVKPSQTLSLTCTVSGGSISSGGYYWSWIRQHPGKGLEWIGYIYYSGSTYYNPSLKSRVTISVDTSKNQFSLKLSSVTAADTAVYYCARMGRIAASNYYGMDVWGQGTTVTVSS
VL: DIQLTQSPSFLSASVGDRVTITCRASQGISSQLAWYQQEPGKAPKLLIYAASTLQSGVPSRFSGSGSGTEFTLTISSLQPEDFATYYCQQVNAYPLTFGPGTKVDIKR
notes: also called P59399
B16: B16 (antibody, human IgG4, kappa, V domains shown)
VH: QVQLVQSGGGLVQPGGSLRLSCAASGFTFSSYAMSWVRQAPGKGLEWVSAISGSGGSTYYADSVKGRFTISRDNPKNTLFLQMTSLRSEDTAMYYCARSYGNYFTYWGQGTLVTVSS
VL: EIVLTQSPATLSLSPGERATLSCRASQSVSSYLAWYQQKPGQAPRLLIYDASNRATGIPARFSGSGSGTDFTLTISSLEPEDFAVYYCQQRSNWPPELTFGGGTKVEIKR
notes: also called P59382
B17: A67 (antibody, human IgG4, kappa, V domains shown)
VH: QVQLVQSGGGVVQPGRSLRLPCAASGFTFSNYAMHWVRQAPGKGLEWVAVISYDGSKKYYADSVKGRFTISRDNSKNTLYLQVNSLRAEDTAVYYCATGYSSPWYGMDVWGQGTTVTVSS
VL: NIQMTQSPSSLSASVGDRITITCRASQSVNSYVNWYQQTPGQAPKLLIYAASSVHNGVPVRFSGSRSGTEFILTISSLQPEDFVTYFCQQSFTSPWTFGQGTKLEMKR
notes: also called P59376
B18: A378 (antibody, human IgG4, kappa, V domains shown)
VH: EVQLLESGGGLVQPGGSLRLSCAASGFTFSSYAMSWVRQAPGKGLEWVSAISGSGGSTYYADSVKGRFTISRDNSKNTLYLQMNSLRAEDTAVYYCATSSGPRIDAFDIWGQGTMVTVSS
VL: NIQMTQSPSSLTASVGDRITITCRASQGIRNSLAWYQQKPGTAPKLLVSAASKLQTGVPSRFSGSGSGTDYTLTISSLQTEDFATYYCQQYYGTPPTFGQGTKLEIKR
notes: also called P59380
B19: A26 (antibody, human IgG4, kappa, V domains shown)
VH: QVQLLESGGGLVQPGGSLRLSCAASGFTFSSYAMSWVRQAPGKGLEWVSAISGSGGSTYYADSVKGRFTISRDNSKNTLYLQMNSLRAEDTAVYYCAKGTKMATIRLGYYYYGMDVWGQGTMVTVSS
VL: DIVMTQSPLSLPVTPGEPASISCRSSQSLLHSNGRNYLDWYLQKPGQSPQLLIYLGSNRASGVSDRFSASGSGTDFTLQISRVEAEDVGIYYCMQALQTPWTFGQGTKVEVKR
notes: also called P59372
B20: A44 (antibody, human IgG4, kappa, V domains shown)
VH: QVQLQESGPGLVKPSQTLSLTCTVSGGSISSGGYYWSWIRQHPGKGLEWIGYIYYSGSTYYNPSLKSRVTISVDTSKNQFSLKLSSVTAADTAVYYCARWGRGGSSWRFDIWGQGTMVTVSS
VL: AIQMTQSPSSLSASVGDRVTITCRASQALTYTLAWYQQKPGKAPRLLIHDASSLESGVPSRFSGSGSGTDFTLTITSLQPEDFATYYCQQFRSYPLTFGGGTKVEIKR
notes: also called P59373
B21: A53 (antibody, human IgG4, kappa, V domains shown)
VH: EVQLLESGPGLVKPSQTLSLTCTVSGGSISSGGYYWSWIRQHPGKGLEWIGYIYYSGSTYYNPSLKSRVTISVDTSKNQFSLKLSSVTAADTAVYYCARDSRGRSYGMDVWGQGTMVTVSS
VL: DIQMTQSPSSLSASVGDRVTITCRASQSINNYLNWYQEKPGKAPKLLIYAASSLQSGVPSRFSGSGSGTDFTLTISSLQPEDFATYYCQQSYSYPFTFGPGTKVDIKR
notes: also called P59374
B22: A23 (antibody, human IgG4, kappa, V domains shown)
VH: QVQLVQSGAEVKKPGSSVKVSCKASGGTFSSYAISWVRQAPGQGLEWMGGIIPIFGTANYAQKFQGRVTITADESTSTAYMELSSLRSEDTAVYYCARGGGGRGMTSDWGQGTLVTVSS
VL: NIQLTQSPSSLSASVGDRVTITCRASQDISNYLAWFQQKPGKAPKSLIYAASSLQSGVPSRFSGSWSGTDFTLTISSLQPEDIATYYCQQYKRYPFIFGQGTKLEIKR
notes: also called P59371

Molecular target: T1, CC1H, major antigenic region of PLA2R (human, UniProt Q13018 21-367)
T1 construct: Secreted from CHO-S cells, purified on Ni column; also called CCIh
Experiment: indirect ELISA, CC1h coated at 2 ug/mL, anti-human IgG Fc HRP
Experimental: 30 μL of CC1h (2 μg/mL, diluted with 1*PBS) was added to the reaction wells of the ELISA plate, and the plate was sealed and incubated at 4° C. overnight. The plate was washed with PBST for 3 times, and the liquid in the wells was discarded. 5% PBSM was added to block the ELISA plate at room temperature for 2 hours. The plate was washed with PBST for 3 times by adding 30 μL of Abs (diluted with 1*PBS) to each well of the ELISA plate, and the plate was incubated at room temperature for 60 min. The plate was washed with PBST for 3 times, 30 μL of anti-human IgG Fc HRP (diluted with 1% PBSM at a ratio of 1:8000) was added to each well, and incubated at room temperature for 60 min. TMB was added and the reaction was stopped with 2M blocking solution and the OD value was detected at 450 nm. Recombinant Ipilimumab (Sanyou Biopharmaceuticals Co., Ltd.) was used as a negative control. The test results were illustrated in Table 2 as well as FIG. 4 and FIG. 5.

Row | EC50 | Binder
1 | 7.67 ng/mL | B1
2 | 7.17 ng/mL | B2
3 | 6.38 ng/mL | B3
4 | 7.03 ng/mL | B4
5 | 5.36 ng/mL | B5
6 | 8.09 ng/mL | B6
7 | 7.71 ng/mL | B7
8 | 5.02 ng/mL | B8
9 | 8.88 ng/mL | B9
10 | 13.2 ng/mL | B10
11 | 6.52 ng/mL | B11
12 | 8.49 ng/mL | B12
13 | 3.85 ng/mL | B13
14 | 4.81 ng/mL | B14
15 | 5.74 ng/mL | B15
16 | 6.67 ng/mL | B16
17 | 6.41 ng/mL | B17
18 | 14.1 ng/mL | B18
19 | 16 ng/mL | B19
20 | 4.79 ng/mL | B20
21 | 4.03 ng/mL | B21
22 | 27.6 ng/mL | B22
